The values that follow come from publication PMC7764042.

In the assay the target is recombinant human interferon beta-1a (human), P01574. Put plainly: SPR; IFN-β immobilised on ProteOn GLH chip by amine coupling; Ca^2+-loaded S100 as analyte (0.25–5 µM S100A1, 0.5–5 µM S100A4/A6, 5 µM other S100); 25 °C; 10 mM HEPES, 150 mM NaCl, 0.01% TWEEN 20, pH 7.4, 1 mM CaCl2; heterogeneous ligand model. The conditions noted are these: remark: other sources report otherwise. (In general: In SPR one partner is held on a chip, and binding of the other changes the refractive index at the surface.)

B1: recombinant human S100B, P04271 1-92 (natural protein)
chain: MSELEKAMVALIDVFHQYSGREGDKHKLKKSELKELINNELSHFLEEIKEQEVVDKVMETLDNDGDGECDFQEFMAFVAMVTTACHEFFEHE
B1: the dissociation constant (Kd) was over 10 µM.

What is called Kd is the constant that tells how readily two partners part at equilibrium.
